# From patent publication US20240343803A1 (SHANDONG SIMCERE BIOPHARMACEUTICAL, published 2024)
# Where a chain is given by its changes, count along the chain named.
# T1: human TIGIT ECD-mFc (human)
# T1 construct: also called human TIGIT protein; fusion protein of extracellular domain of human TIGIT and mouse IgG2a Fc fragment
# T1 chain: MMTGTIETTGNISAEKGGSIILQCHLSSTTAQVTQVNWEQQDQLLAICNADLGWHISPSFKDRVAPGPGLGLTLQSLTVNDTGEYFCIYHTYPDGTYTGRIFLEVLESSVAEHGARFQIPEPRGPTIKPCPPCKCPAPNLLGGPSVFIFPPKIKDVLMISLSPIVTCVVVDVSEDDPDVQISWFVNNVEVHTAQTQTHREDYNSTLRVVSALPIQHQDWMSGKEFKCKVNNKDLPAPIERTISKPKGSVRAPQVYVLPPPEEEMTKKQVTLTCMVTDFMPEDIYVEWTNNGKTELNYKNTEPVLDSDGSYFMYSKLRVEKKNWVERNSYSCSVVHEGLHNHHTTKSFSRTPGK
# T2: Fusion protein of extracellular domain of human TIGIT and His-tag (human TIGIT ECD-his) (human)
# T2 chain: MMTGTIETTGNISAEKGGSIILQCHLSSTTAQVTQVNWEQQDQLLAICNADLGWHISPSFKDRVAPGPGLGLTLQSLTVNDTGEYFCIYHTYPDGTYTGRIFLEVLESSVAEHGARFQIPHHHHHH
# T3: Full-length human TIGIT on CHO-K1 cells (CHO-K1 human TIGIT) (human, UniProt Q495A1 22-244)
# T3 construct: NCBI XP_024309156.1; the entry includes the signal peptide (limits not recoverable); The strain (high, medium, low) is named under assay; also called high expression strain 1D2; medium expression strain 2D10
# T3 sequence: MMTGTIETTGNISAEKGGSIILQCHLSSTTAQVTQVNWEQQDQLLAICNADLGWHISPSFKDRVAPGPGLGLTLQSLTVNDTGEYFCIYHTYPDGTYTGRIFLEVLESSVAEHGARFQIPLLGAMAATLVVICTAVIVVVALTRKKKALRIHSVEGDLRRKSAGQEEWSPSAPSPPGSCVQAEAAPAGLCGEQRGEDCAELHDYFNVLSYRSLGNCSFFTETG
# T4: Fusion protein of extracellular domain of human TIGIT and mouse IgG2a Fc fragment (human TIGIT ECD-mFc) (human)
# T4 construct: The entry includes the signal peptide (limits not recoverable) and the mouse IgG2a Fc
# T4 chain: T1 chain
# B1: RG6058-hIgG1 (antibody, V domains shown)
# VH: EVQLQQSGPGLVKPSQTLSLTCAISGDSVSSNSAAWNWIRQSPSRGLEWLGKTYYRFKWYSDYAVSVKGRITINPDTSKNQFSLQLNSVTPEDTAVFYCTRESTTYDLLAGPFDYWGQGTLVTVSS
# VL: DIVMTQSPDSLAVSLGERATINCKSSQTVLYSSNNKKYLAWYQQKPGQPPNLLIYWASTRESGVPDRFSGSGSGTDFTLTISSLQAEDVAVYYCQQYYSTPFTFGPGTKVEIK
# notes: Anti-TIGIT positive control; also called Roche RG6058
# B2: TIGIT-005-H2L1d (antibody, V domains shown)
# VH: EVQLVQSGAEVKKPGASVKVSCKASGYAFTNYLIEWVRQAPGQRLEWMGVINPGSGGTNYKEKFKGRVTITADKSSSTAYMELSSLRSEDTAVYYCARGEYFFFDYWGQGTTVTVSS
# VL: DIVMTQSPDSLAVSLGERATINCKASQHVSNAVAWYQHKPGQSPKLLIYSASYRYTGVPDRFSGSGSGTDFTLTISSLQAEDVAVYYCQQHYNTPHTFGGGTKVEIK
# B3: TIGIT-070-H2L1 (antibody, V domains shown)
# VH: EVQLVQSGAEVKKPGASVKVSCKASGYTFTNYYMHWVRQAPGQRLEWMGRIDPDSGGSKYNEKFKSRVTITVDKLSSTAYMELSSLRSEDTAVYYCAREGHYGFYSDYWGQGTTVTVSS
# VL: DIQMTQSPSSLSASVGDRVTITCRVSENIYSYLAWYQQKPGKSPKLLIYNAKTLAEGVPSRFSGSGSGTDFTLTISSLQPEDFATYYCQHHYGNPLTFGPGTKVDIK
# notes: Humanized anti-TIGIT antibody
# B4: TIGIT-070-H2L3 (antibody, V domains shown)
# VH: B3 VH
# VL: DIVMTQSPDSLAVSLGERATINCRVSENIYSYLAWYQQKPGQSPKLLVYNAKTLAEGVPDRFSGSGSGTDFTLTISSLQAEDVAVYYCQHHYGNPLTFGPGTKVDIK
# notes: Humanized anti-TIGIT antibody
# B5: TIGIT-070-H1L2 (antibody, V domains shown)
# VH: B3 VH with L75S, S76A
# VL: B3 VL with I48V
# notes: Humanized anti-TIGIT antibody
# B6: TIGIT-070-H2L2 (antibody, V domains shown)
# VH: B3 VH
# VL: B3 VL with I48V
# notes: Humanized anti-TIGIT antibody
# B7: TIGIT-070-H3L3 (antibody, V domains shown)
# VH: B3 VH with R44G
# VL: B4 VL
# notes: Humanized anti-TIGIT antibody
# B8: TIGIT-070-H3L2 (antibody, V domains shown)
# VH: B3 VH with R44G
# VL: B3 VL with I48V
# notes: Humanized anti-TIGIT antibody
# B9: TIGIT-070-H3L1 (antibody, V domains shown)
# VH: B3 VH with R44G
# VL: B3 VL
# notes: Humanized anti-TIGIT antibody
# B10: TIGIT-070-H1L3 (antibody, V domains shown)
# VH: B3 VH with L75S, S76A
# VL: B4 VL
# notes: Humanized anti-TIGIT antibody
# B11: TIGIT-002-H4L3 (antibody, V domains shown)
# VH: EVQLQESGPGLVKPSETLSLTCAVSGYSITSDSWNWIRQPPGKKLEYIGYISYSGNTYYNPSLKSRVTISRDTSKNQFSLKLSSVTAADTAVYYCARLDFSNYGGAVDYWGQGTTVTVSS
# VL: B2 VL with H28N, S30R, N31T, H38Q, L47M, H91Y, N93T, H96W
# Molecular target: T1, human TIGIT ECD-mFc
# Assay: ELISA, human TIGIT ECD-mFc captured by anti-mouse IgG
# Description: (§1) After washing with blocking buffer, the plate was added with 50 μL/well of 30 ng/ml human TIGIT ECD-mFc (in house) or cynomolgus monkey TIGIT ECD-mFc (in house) and incubated at 37° C. for 2.0 hours. After washing the plate, the serial diluted antibodies (initial concentration 13 nM, 3-fold serial dilution, 12 concentration points) were added into the plate (50 μL/well) and incubated at 37° C. for 2.0 hours. After washing the plate, the goat anti-human IgG Fc-HRP (Merck, Cat NO. AP113P)) working solution (dilution ratio 1:5000, 50 μL/well) were added into wells and incubated at 37° C. for 1.0 hour. A HRP substrate, TMB (KPL, Cat NO. 5120-0077) was added into wells after washing the plate again for color development. After adding a termination solution to terminate the reaction, the absorbance value was read by a microplate reader (PE, Ensight-HH3400). An antibody binding curve was drawn with molar concentration of antibodies as the abscissa and the corresponding OD value as the ordinate. The EC50 value was calculated by using a Four Parameter Logistic Fit (GraphPad Prism9). […] The positive control antibodies are RG6058-hIgG1, TIGIT-002-H4L3 and TIGIT-005-H2Lld; and the negative control antibodies are anti-Fluorescein-hIgG1 (in house). The binding results of the 4 humanized bispecific antibodies to human TIGIT protein are shown in FIG. 43 and Tables 42 and 43, and the binding results to cynomolgus monkey TIGIT are shown in FIG. 44 and Tables 42 and 43.
Binder,% relative activity RG6058-hIgG1/tested antibody,% relative activity TIGIT-005-H2L1d/tested antibody,EC50
B1,100%,85.2%,50.4 pM
B2,117%,100%,42.9 pM

# Molecular target: T2, Fusion protein of extracellular domain …
# Assay: BIAcore; KD ratio to TIGIT-CHI-070
row,Binder,Fold change vs chimeric antibodies (KD)
1,B3,0.82 fold
2,B4,0.77 fold
3,B5,0.9 fold
4,B6,0.87 fold
5,B7,1.17 fold
6,B8,1.32 fold
7,B9,1.23 fold
8,B10,0.74 fold

# Molecular target: T3, Full-length human TIGIT on CHO-K1 cells …
# Assay: cell binding, CHO-K1 human TIGIT high expression strain
# How it was run: (§2)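 Binding was measured by flow cytometry after a 60-minute, 4° C incubation of the antibodies with 2×10⁵ CHO-K1 cells displaying full-length human or cynomolgus monkey TIGIT. Antibody titration: 12 points, threefold serial dilution from 80 nM, in 1% BSA-PBS.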
row,Binder,EC50
1,B3,23.6 pM
2,B4,20.9 pM
3,B5,27.2 pM
4,B6,31.2 pM
5,B7,30 pM
6,B8,27.6 pM
7,B9,13.2 pM
8,B10,24 pM

# Molecular target: T5, Full-length cynomolgus monkey TIGIT on CHO-K1 cells (CHO-K1 cynomolgus monkey TIGIT) (cynomolgus monkey)
# T5 construct: NCBI XP_015300911.1
# Assay: cell binding, CHO-K1 cynomolgus monkey TIGIT
# How it was run: as §2
# T5 sequence (chain, as listed by the source limits assumed): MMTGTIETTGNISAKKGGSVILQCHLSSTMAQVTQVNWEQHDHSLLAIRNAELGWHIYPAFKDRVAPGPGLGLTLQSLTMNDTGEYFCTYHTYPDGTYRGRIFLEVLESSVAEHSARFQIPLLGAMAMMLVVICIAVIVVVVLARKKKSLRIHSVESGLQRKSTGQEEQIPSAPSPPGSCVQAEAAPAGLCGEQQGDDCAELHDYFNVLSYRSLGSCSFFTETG
row,Binder,EC50
1,B3,79.9 pM
2,B4,77.4 pM
3,B5,87.9 pM
4,B6,66.2 pM
5,B7,55.6 pM
6,B8,66.5 pM
7,B9,74.1 pM
8,B10,112 pM

# Molecular target: T6, cynomolgus monkey TIGIT ECD-mFc (cynomolgus monkey)
# T6 construct: also called cynomolgus monkey TIGIT protein
# Assay: ELISA, cynomolgus TIGIT ECD-mFc captured by anti-mouse IgG
# Description: as §1
Binder,% relative activity RG6058-hIgG1/tested antibody,% relative activity TIGIT-005-H2L1d/tested antibody,EC50
B1,100%,96.8%,46 pM
B2,103%,100%,44.6 pM

# Molecular target: T1, human TIGIT ECD-mFc
# Assay: ELISA, human TIGIT ECD-mFc captured by anti-mouse IgG
# Remark: another data set of the same source
# Description: as §1
Binder,% relative activity RG6058-hIgG1/tested antibody,% relative activity TIGIT-002-H4L3/tested antibody,EC50
B1,100%,74.3%,50.4 pM
B11,135%,100%,37.4 pM

# Molecular target: T7, Fusion protein of extracellular domain of human TIGIT and human IgG1 Fc fragment (human TIGIT ECD-hFc) (human)
# T7 construct: The entry includes the signal peptide (limits not recoverable) and the human IgG1 Fc
# Assay: blocking of TIGIT ECD-hFc binding to CHO-K1 CD155 cells
# How it was run: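 The inhibition curves from which IC50 was calculated were generated by cell-based ELISA. Fixed CHO-K1 CD155 cells, blocked with 5% skim milk-PBS, were incubated at 37° C for 1.5-2 h with antibodies that had been premixed for 0.5 h with human TIGIT ECD-hFc at a working concentration of 30 ng/mL. Detection of bound TIGIT used HRP secondary antibody at 1:5000 for 1 h at 37° C, followed by TMB and reading as OD450 nm.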
# T7 sequence (chain, as listed by the source limits assumed): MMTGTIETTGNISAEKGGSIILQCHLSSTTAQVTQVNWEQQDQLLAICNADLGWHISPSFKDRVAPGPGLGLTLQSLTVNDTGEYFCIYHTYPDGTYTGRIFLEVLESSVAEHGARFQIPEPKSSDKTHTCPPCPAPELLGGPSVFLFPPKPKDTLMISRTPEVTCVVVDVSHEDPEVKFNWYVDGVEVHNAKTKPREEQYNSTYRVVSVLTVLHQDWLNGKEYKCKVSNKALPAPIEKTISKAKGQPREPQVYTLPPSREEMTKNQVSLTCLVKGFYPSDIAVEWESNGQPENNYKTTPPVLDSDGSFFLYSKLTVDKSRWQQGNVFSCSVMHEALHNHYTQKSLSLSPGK
row,Binder,IC50
1,B3,393 pM
2,B4,350 pM
3,B5,421 pM
4,B6,448 pM
5,B7,417 pM
6,B8,423 pM
7,B9,463 pM
8,B10,445 pM

# Molecular target: T4, Fusion protein of extracellular domain …
# Assay: ELISA, human TIGIT ECD-mFc
# How it was run: (§3)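 Plates blocked with 5% skim milk-PBS at 37° C for 2-4 h. Test antibodies applied as a 12-point 3-fold series from 13 nM for 1.5-2 h at 37° C. Read-out: HRP secondary (1:5000, 1 h, 37° C), TMB colour for 7-10 min at room temperature, acid stop, absorbance at OD450 nm.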
row,Binder,EC50
1,B3,12.9 pM
2,B4,11.9 pM
3,B5,11.8 pM
4,B6,12.5 pM
5,B7,15.1 pM
6,B8,14.3 pM
7,B9,13.1 pM
8,B10,14.8 pM

# Molecular target: T8, Fusion protein of extracellular domain of cynomolgus monkey TIGIT and mouse IgG2a Fc fragment (cynomolgus … (cynomolgus monkey))
# T8 construct: The entry includes the signal peptide (limits not recoverable) and the mouse IgG2a Fc
# Assay: ELISA, cynomolgus monkey TIGIT ECD-mFc
# How it was run: as §3
# T8 sequence (chain, as listed by the source limits assumed): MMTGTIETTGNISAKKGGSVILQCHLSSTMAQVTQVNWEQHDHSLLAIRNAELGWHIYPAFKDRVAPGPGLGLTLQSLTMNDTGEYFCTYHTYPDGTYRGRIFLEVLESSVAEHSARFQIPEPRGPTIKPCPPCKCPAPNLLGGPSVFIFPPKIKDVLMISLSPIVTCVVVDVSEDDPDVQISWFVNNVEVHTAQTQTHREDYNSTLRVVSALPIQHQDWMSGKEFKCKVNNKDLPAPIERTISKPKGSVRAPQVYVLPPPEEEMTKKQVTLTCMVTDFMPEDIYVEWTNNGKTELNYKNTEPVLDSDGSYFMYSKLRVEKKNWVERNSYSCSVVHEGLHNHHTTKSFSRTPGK
row,Binder,EC50
1,B3,12.4 pM
2,B4,11.9 pM
3,B5,11.6 pM
4,B6,11.2 pM
5,B7,14.2 pM
6,B8,15.7 pM
7,B9,13.9 pM
8,B10,13.7 pM

# Molecular target: T2, Fusion protein of extracellular domain …
# Assay: BIAcore
Binder,Kd,koff,kon
B3,80.8 pM,0.000134 s⁻¹,1.66e+06 M⁻¹ s⁻¹
B4,75.6 pM,0.000134 s⁻¹,1.77e+06 M⁻¹ s⁻¹
B5,88.3 pM,0.000148 s⁻¹,1.67e+06 M⁻¹ s⁻¹
B6,85.1 pM,0.000142 s⁻¹,1.67e+06 M⁻¹ s⁻¹
B7,115 pM,0.000151 s⁻¹,1.31e+06 M⁻¹ s⁻¹
B8,129 pM,0.000168 s⁻¹,1.3e+06 M⁻¹ s⁻¹
B9,121 pM,0.000152 s⁻¹,1.26e+06 M⁻¹ s⁻¹
B10,72.4 pM,0.000129 s⁻¹,1.78e+06 M⁻¹ s⁻¹

# Molecular target: T6, cynomolgus monkey TIGIT ECD-mFc
# Assay: ELISA, cynomolgus TIGIT ECD-mFc captured by anti-mouse IgG
# Remark: another data set of the same source
# Description: as §1
Binder,% relative activity RG6058-hIgG1/tested antibody,% relative activity TIGIT-002-H4L3/tested antibody,EC50
B1,100%,90%,46 pM
B11,111%,100%,41.5 pM
